Assay results published in US20170096493A1 (EISAI R AND D MANAGEMENT, published 2017).
Positions count from the first letter of the chain named. Names may count otherwise.

Key:
[1] = target: T1, Human Notch4-NRR domain Fc fusion protein (human, UniProt Q99466 1046-1445, limits assumed); experiment: SPR (Biacore) as for Table 30; Notch4-NRR-Fc captured, antibody injected; averaged, N=5
T1 construct: Expressed in a CHO cell line, used from culture supernatant; 1 is named; also called Human Notch4-NRR Fusion Protein; not shown: Fc
T1 sequence: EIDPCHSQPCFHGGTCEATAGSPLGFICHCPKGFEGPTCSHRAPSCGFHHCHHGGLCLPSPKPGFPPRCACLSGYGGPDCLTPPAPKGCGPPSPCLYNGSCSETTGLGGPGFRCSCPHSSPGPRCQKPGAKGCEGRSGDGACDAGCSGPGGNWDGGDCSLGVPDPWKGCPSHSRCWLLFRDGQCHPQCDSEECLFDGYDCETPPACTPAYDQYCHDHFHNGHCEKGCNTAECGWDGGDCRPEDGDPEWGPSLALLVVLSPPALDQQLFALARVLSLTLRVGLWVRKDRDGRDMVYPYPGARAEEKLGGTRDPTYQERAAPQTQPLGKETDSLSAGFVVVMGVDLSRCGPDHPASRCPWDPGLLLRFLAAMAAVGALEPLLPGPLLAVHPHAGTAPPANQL
Procedure: (§1) Kinetic analysis of further anti-Notch4 inhibitory humanized antibodies was carried out as follows. Human Notch4-NRR domain Fc fusion proteins were expressed with a CHO cell line. The antigen in the culture supernatant was captured by the anti-human Notch4 antibody fixed on a CM5 sensor chip that recognizes different epitopes of human Notch4. The humanized anti-human Notch4 antibody was then injected onto the sensor chip at various concentrations. The interaction and disassociation constants thereof were calculated according to manufacturer's instructions.

[2] = target: T1, Human Notch4-NRR domain Fc fusion …; experiment: SPR (Biacore) as for Table 30; Notch4-NRR-Fc captured, antibody injected; averaged, N=3
Procedure: as §1

[3] = target: T1, Human Notch4-NRR domain Fc fusion …; experiment: SPR (Biacore) as for Table 30; Notch4-NRR-Fc captured, antibody injected; averaged, N=1
Procedure: as §1

B1: HA2L4(Lys-) (antibody, human IgG2, kappa)
heavy: EVQLVESGGGLVQPGGSLRLSCAASGFTFSSYGMSWVRQAPGKGLELVSTINSNGGRTYYANSVKGRFTISRDNSKNTLYLQMGSLRAEDMAVYYCARDQGFAYWGQGTLVTVSSASTKGPSVFPLAPCSRSTSESTAALGCLVKDYFPEPVTVSWNSGALTSGVHTFPAVLQSSGLYSLSSVVTVPSSNFGTQTYTCNVDHKPSNTKVDKTVERKCCVECPPCPAPPAAAPSVFLFPPKPKDTLMISRTPEVTCVVVDVSHEDPEVQFNWYVDGVEVHNAKTKPREEQFNSTFRVVSVLTVVHQDWLNGKEYKCKVSNKGLPAPIEKTISKTKGQPREPQVYTLPPSREEMTKNQVSLTCLVKGFYPSDIAVEWESNGQPENNYKTTPPMLDSDGSFFLYSKLTVDKSRWQQGNVFSCSVMHEALHNHYTQKSLSLSPG
light: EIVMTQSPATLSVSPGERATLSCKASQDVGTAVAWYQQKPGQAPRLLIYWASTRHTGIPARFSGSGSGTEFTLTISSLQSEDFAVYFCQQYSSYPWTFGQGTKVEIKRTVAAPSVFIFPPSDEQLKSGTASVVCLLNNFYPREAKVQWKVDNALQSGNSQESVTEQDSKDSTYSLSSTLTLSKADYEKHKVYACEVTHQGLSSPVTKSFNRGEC
notes: Humanized IgG2 (V234A, G237A)/κ; also called No. 32
Question: For B1, which Kd [1] is on record?
Answer: 0.83 nM

Question: What about the koff [1] of the same binder?
Answer: 0.00162 s⁻¹

Question: And the kon [1]?
Answer: 2.43e+06 M⁻¹ s⁻¹

B2: HK2L5(Lys-) (antibody, human IgG2, kappa)
heavy: B1 heavy with A61P, N62D
light: DIQMTQSPSSLSASVGDRVTITCKASQDVGTAVAWYQQKPGKSPKLLIYWASTRHTGVPSRFSGSGSGTDFTLTISSLQPEDVATYFCQQYSSYPWTFGQGTKVEIKRTVAAPSVFIFPPSDEQLKSGTASVVCLLNNFYPREAKVQWKVDNALQSGNSQESVTEQDSKDSTYSLSSTLTLSKADYEKHKVYACEVTHQGLSSPVTKSFNRGEC
notes: Humanized IgG2 (V234A, G237A)/κ; also called No. 36
Question: What does the source list for B2?
Answer: Kd [1]: 0.617 nM; koff [1]: 0.00113 s⁻¹; kon [1]: 1.93e+06 M⁻¹ s⁻¹

B3: HA2L5(Lys-) (antibody, human IgG2, kappa)
heavy: B1 heavy
light: B2 light
notes: Humanized IgG2 (V234A, G237A)/κ; also called No. 33
Question: Which Kd [2] does the source give for B3 here?
Answer: 0.776 nM

Question: What about the koff [2] of the same binder?
Answer: 0.0015 s⁻¹

Question: What about the kon [2] of the same binder?
Answer: 2.01e+06 M⁻¹ s⁻¹

B4: HA1L3 (antibody, human IgG2, kappa, V domains shown)
VH: EVQLVESGGGLVQPGGSLRLSCAASGFTFSSYGMSWVRQAPGKGLEYVSTINSNGGRTYYANSVKGRFTISRDNSKNTLYLQMGSLRAEDMAVYYCARDQGFAYWGQGTLVTVSS
VL: EIVMTQSPATLSVSPGERATLSCKASQDVGTAVAWYQQKPGQAPRLLIYWASTRHTGIPARFSGSGSGTEFTLTISSLQSEDFAVYYCQQYSSYPWTFGQGTKVEIKR
notes: Humanized IgG2 (V234A, G237A)/κ; also called No. 23
Question: For B4, which Kd [3] is on record?
Answer: 14.7 nM

Question: What about the koff [3] of the same binder?
Answer: 0.524 s⁻¹

Question: What about the kon [3] of the same binder?
Answer: 3.57e+07 M⁻¹ s⁻¹

B5: HA1L4 (antibody, human IgG2, kappa, V domains shown)
VH: B4 VH
VL: B4 VL with Y87F
notes: Humanized IgG2 (V234A, G237A)/κ; also called No. 24
Question: Which Kd [3] does the source give for B5 here?
Answer: 9.54 nM

Question: What about the koff [3] of the same binder?
Answer: 0.113 s⁻¹

Question: What about the kon [3] of the same binder?
Answer: 1.18e+07 M⁻¹ s⁻¹

B6: HA1L1 (antibody, human IgG2, kappa, V domains shown)
VH: B4 VH
VL: DIQMTQSPSSLSASVGDRVTITCKASQDVGTAVAWYQQKPGKVPKLLIYWASTRHTGVPSRFSGSGSGTDFTLTISSLQPEDVATYYCQQYSSYPWTFGQGTKVEIKR
notes: Humanized IgG2 (V234A, G237A)/κ; also called No. 21
Question: Which results are given for B6?
Answer: Kd [3]: 453 nM; koff [3]: 0.0279 s⁻¹; kon [3]: 61500 M⁻¹ s⁻¹

B7: HK1L5 (antibody, human IgG2, kappa, V domains shown)
VH: B4 VH with A61P, N62D
VL: B6 VL with V43S, Y87F
notes: Humanized IgG2 (V234A, G237A)/κ; also called No. 10
Question: For B7, which Kd [2] is on record?
Answer: 1.78 nM

Question: And the koff [2]?
Answer: 0.00489 s⁻¹

Question: And the kon [2]?
Answer: 2.72e+06 M⁻¹ s⁻¹
